Test results taken from patent US20130344055A1, “ANTIMICROBIAL AGENTS” (priority 2010, published 2013).

Legend:
Type in all cases: cell-based
[1] = tested on: Pseudomonas bacteria; test: In vitro antibacterial activity of KZ144 and EL188 fusion variants; settings: with EDTA 0.5 mM; 10^6 cells/ml; 30 minutes at RT
Procedure: Exponential growing Gram-negative bacterial cells (OD600 nm=0.6) were 100-fold diluted to a final density of about 10^6 cells/ml in 5 mM HEPES pH 7.4 and incubated for 30 minutes at room temperature without shaking with the different modified OBPgpLYS variants (in Elution Buffer in an end concentration of 1500 nM). After incubation cell suspensions and as a control untreated bacterial cells without any added modified OBPgpLYS variant were diluted three times (respectively 10^5-10^4-10^3 cells/ml) in 1× concentrated PBS buffer and 100 μl of each dilution was plated out on LB-medium. […] All samples were replicated in threefold. Averages +/− standard deviations are represented.
The purification of the fusion proteins and the antimicrobial activity assay was performed as described in Example 1.

[2] = tested on: Streptococcus bacteria; test: In vitro antibacterial activity of Cpl1 fusion variants; settings: with EDTA 0.5 mM; 10^6 cells/ml; 30 minutes at RT
[3] = tested on: Listeria bacteria; test: In vitro antibacterial activity of Ply511 fusion variants; settings: with EDTA 0.5 mM; 10^6 cells/ml; 30 minutes at RT
[4] = tested on: Staphylococcus bacteria; test: In vitro antibacterial activity of Lysostaphin and LysK fusion variants; settings: LysK variants; with EDTA 0.5 mM; 10^6 cells/ml; 30 minutes at RT

Row | Molecule | Average log reduction, Pseudomonas [1] | Average log reduction, Streptococcus [2] | further results
1 | KZ144: Pseudomonas aeruginosa bacteriophage endolysin KZ144 (phage phiKZ) (protein, Pseudomonas aeruginosa phage KZ) KVLRKGDRGDEVCQLQTLLNLCGYDVGKPDGIFGNNTFNQVVKFQKDNCLDSDGIVGKNTWAELFSKYSPPIPYKTIPMPTANKSRAAATPVMNAVENATGVRSQLLLTFASIESAFDYEIKAKTSSATGWFQFLTGTWKTMIENYGMKYGVLTDPTGALRKDPRISALMGAELIKENMNILRPVLKREPTDTDLYLAHFFGPGAARRFLTTGQNELAATHFPKEAQANPSIFYNKDGSPKTIQEVYNLMDGKVAAHRK | +/− (+/−: <1 log) |  | 
2 | KZ144-PK: KZ144 fusion variant with one peptide stretch, PK (protein) MKVLRKGDRGDEVCQLQTLLNLCGYDVGKPDGIFGNNTFNQVVKFQKDNCLDSDGIVGKNTWAELFSKYSPPIPYKTIPMPTANKSRAAATPVMNAVENATGVRSQLLLTFASIESAFDYEIKAKTSSATGWFQFLTGTWKTMIENYGMKYGVLTDPTGALRKDPRISALMGAELIKENMNILRPVLKREPTDTDLYLAHFFGPGAARRFLTTGQNELAATHFPKEAQANPSIFYNKDGSPKTIQEVYNLMDGKVAAHRKKRKKRKKRK | + (+: 1 log) |  | 
3 | EL188: Pseudomonas aeruginosa bacteriophage endolysin EL188 (phage EL) (protein, Pseudomonas aeruginosa phage EL) MNFRTKNGYRDLQALVKELGLYTGQIDGVWGKGTSSSTETLLRGYAEVVGKNTGGIGLPTTSDASGYNVITALQRNLAFLGLYSLTVDGIWGNGTLSGLDKAFEVYKERYRTPTYDIAWSGKVSPAFTAKVKDWCGVHVPNHRAPHWLMACMAFETGQTFSPSIKNAAGSEAYGLIQFMSPAANDLNVPLSVIRSMDQLTQLDLVFKYFEMWMKRGKRYTQLEDFYLTIFHPASVGKKADEVLFLQGSKAYLQNKGFDVDKDGKITLGEISSTLYTTYYKGLLPENRHVISY | +/− (+/−: <1 log) |  | 
4 | EL188-PK: EL188 fusion variant with one peptide stretch, PK (protein) MNFRTKNGYRDLQALVKELGLYTGQIDGVWGKGTSSSTETLLRGYAEVVGKNTGGIGLPTTSDASGYNVITALQRNLAFLGLYSLTVDGIWGNGTLSGDKAFEVYKERYRTPTYDIAWSGKVSPAFTAKVKDWCGVHVPNHRAPHWLMACMAFETGQTFSPSIKNAAGSEAYGLIQFMSPAANDLNVPLSVIRSMDQLTQLDLVFKYFEMWMKRGKRYTQLEDFYLTIFHPASVGKKADEVLFLQGSKAYLQNKGFDVDKDGKITLGEISSTLYTTYYKGLLPENRHVISYKRKKRKKRK | + (+: 1 log) |  | 
5 | Cpl1: endolysin Cpl-1 (protein, Streptococcus pneumoniae Phage Cpl-1) MVKKNDLFVDVSSHNGYDITGILEQMGTTNTIIKISESTTYLNPCLSAQVEQSNPIGFYHFARFGGDVAEAEREAQFFLDNVPMQVKYLVLDYEDDPSGDAQANTNACLRFMQMIADAGYKPIYYSYKPFTHDNVDYQQILAQFPNSLWIAGYGLNDGTANFEYFPSMDGIRWWQYSSNPFDKNIVLLDDEEDDKPKTAGTWKQDSKGWWFRRNNGSFPYNKWEKIGGVWYYFDSKGYCLTSEWLKDNEKWYYLKDNGAMATGWVLVGSEWYYMDDSGAMVTGWVKYKNNWYYMTNERGNMVSNEFIKSGKGWYFMNTNGELADNPSFTKEPDGLITVA |  | + (+: 1 log) | 
6 | Cpl1-Indolicidin: Cpl1 fusion variant with one peptide stretch, Indolicidin (protein) MVKKNDLFVDVSSHNGYDITGILEQMGTTNTIIKISESTTYLNPCLSAQVEQSNPIGFYHFARFGGDVAEAEREAQFFLDNVPMQVKYLVLDYEDDPSGDAQANTNACLRFMQMIADAGYKPIYYSYKPFTHDNVDYQQILAQFPNSLWIAGYGLNDGTANFEYFPSMDGIRWWQYSSNPFDKNIVLLDDEEDDKPKTAGTWKQDSKGWWFRRNNGSFPYNKWEKIGGVWYYFDSKGYCLTSEWLKDNEKWYYLKDNGAMATGWVLVGSEWYYMDDSGAMVTGWVKYKNNWYYMTNERGNMVSNEFIKSGKGWYFMNTNGELADNPSFTKEPDGLITVAILPWKWPWWPWRR |  | ++ (++: 2-3 log) | 
7 | Cpl1-Pseudin1: Cpl1 fusion variant with one peptide stretch, Pseudin1 (protein) MVKKNDLFVDVSSHNGYDITGILEQMGTTNTIIKISESTTYLNPCLSAQVEQSNPIGFYHFARFGGDVAEAEREAQFFLDNVPMQVKYLVLDYEDDPSGDAQANTNACLRFMQMIADAGYKPIYYSYKPFTHDNVDYQQILAQFPNSLWIAGYGLNDGTANFEYFPSMDGIRWWQYSSNPFDKNIVLLDDEEDDKPKTAGTWKQDSKGWWFRRNNGSFPYNKWEKIGGVWYYFDSKGYCLTSEWLKDNEKWYYLKDNGAMATGWVLVGSEWYYMDDSGAMVTGWVKYKNNWYYMTNERGNMVSNEFIKSGKGWYFMNTNGELADNPSFTKEPDGLITVAGLNTLKKVFQGLHEAIKLINNHVQ |  | ++ (++: 2-3 log) | 
8 | Cpl1-Pseudin1-Indolicidin: Cpl1 with Pseudin1 C-terminal of the enzyme, followed by Indolicidin (protein) MVKKNDLFVDVSSHNGYDITGILEQMGTTNTIIKISESTTYLNPCLSAQVEQSNPIGFYHFARFGGDVAEAEREAQFFLDNVPMQVKYLVLDYEDDPSGDAQANTNACLRFMQMIADAGYKPIYYSYKPFTHDNVDYQQILAQFPNSLWIAGYGLNDGTANFEYFPSMDGIRWWQYSSNPFDKNIVLLDDEEDDKPKTAGTWKQDSKGWWFRRNNGSFPYNKWEKIGGVWYYFDSKGYCLTSEWLKDNEKWYYLKDNGAMATGWVLVGSEWYYMDDSGAMVTGWVKYKNNWYYMTNERGNMVSNEFIKSGKGWYFMNTNGELADNPSFTKEPDGLITVAGLNTLKKVFQGLHEAIKLINNHVQILPWKWPWWPWRR |  | +++ (+++: 4 or more logs) | 
9 | P1y511: endolysin Ply511 (protein, Listeria monocytogenes Phage A511, endolysin Ply511) MVKYTVENKIIAGLPKGKLKGANFVIAHETANSKSTIDNEVSYMTRNWKNAFVTHFVGGGGRVVQVANVNYVSWGAGQYANSYSYAQVELCRTSNATTFKKDYEVYCQLLVDLAKKAGIPITLDSGSKTSDKGIKSHKWVADKLGGTTHQDPYAYLSSWGISKAQFASDLAKVSGGGNTGTAPAKPSTPAPKPSTPSTNLDKLGLVDYMNAKKMDSSYSNRDKLAKQYGIANYSGTASQNTTLLSKIKGGAPKPSTPAPKPSTSTAKKIYFPPNKGNWSVYPTNKAPVKANAIGAINPTKFGGLTYTIQKDRGNGVYEIQTDQFGRVQVYGAPSTGAVIKK |  |  | Average log reduction, Listeria [3]: + (+: 1 log)
10 | Cecropin A (A. aegyptii)-LysK: LysK fusion variant with one peptide stretch, Cecropin A (A. aegyptii) (protein) MGGLKKLGKKLEGAGKRVFNAAEKALPVVAGAKALRKAKTQAEINKRLDAYAKGTVDSPYRVKKATSYDPSFGVMEAGAIDADGYYHAQCQDLITDYVLWLTDNKVRTWGNAKDQIKQSYGTGFKIHENKPSTVPKKGWIAVFTSGSYEQWGHIGIVYDGGNTSTFTILEQNWNGYANKKPTKRVDNYYGLTHFIEIPVKAGTTVKKETAKKSASKTPAPKKKATLKVSKNHINYTMDKRGKKPEGMVIHNDAGRSSGQQYENSLANAGYARYANGIAHYYGSEGYVWEAIDAKNQIAWHTGDGTGANSGNFRFAGIEVCQSMSASDAQFLKNEQAVFQFTAEKFKEWGLTPNRKTVRLHMEFVPTACPHRSMVLHTGFNPVTQGRPSQAIMNKLKDYFIKQIKNYMDKGTSSSTVVKDGKTSSASTPATRPVTGSWKKNQYGTWYKPENATFVNGNQPIVTRIGSPFLNAPVGGNLPAGATIVYDEVCIQAGHIWIGYNAYNGNRVYCPVRTCQGVPPNQIPGVAWGVFK |  |  | Average log reduction, Staphylococcus [4]: ++ (++: 2-3 log)
11 | PK2-Cecropin A (A. aegyptii)-LysK: PK2, then Cecropin A (A. aegyptii), N-terminally fused to LysK (protein) MKRKKRKKRKKRKKRKKRKGGLKKLGKKLEGAGKRVFNAAEKALPVVAGAKALRKAKTQAEINKRLDAYAKGTVDSPYRVKKATSYDPSFGVMEAGAIDADGYYHAQCQDLITDYVLWLTDNKVRTWGNAKDQIKQSYGTGFKIHENKPSTVPKKGWIAVFTSGSYEQWGHIGIVYDGGNTSTFTILEQNWNGYANKKPTKRVDNYYGLTHFIEIPVKAGTTVKKETAKKSASKTPAPKKKATLKVSKNHINYTMDKRGKKPEGMVIHNDAGRSSGQQYENSLANAGYARYANGIAHYYGSEGYVWEAIDAKNQIAWHTGDGTGANSGNFRFAGIEVCQSMSASDAQFLKNEQAVFQFTAEKFKEWGLTPNRKTVRLHMEFVPTACPHRSMVLHTGFNPVTQGRPSQAIMNKLKDYFIKQIKNYMDKGTSSSTVVKDGKTSSASTPATRPVTGSWKKNQYGTWYKPENATFVNGNQPIVTRIGSPFLNAPVGGNLPAGATIVYDEVCIQAGHIWIGYNAYNGNRVYCPVRTCQGVPPNQIPGVAWGVFK |  |  | Average log reduction, Staphylococcus [4]: +++ (+++: 4 or more logs)
